According to the MegaScale stability set (Tsuboyama et al. 2023):

B1: HHH_rd1_0493 (parent)
chain: RDEDEKEKIKEALKRGNEDKAKEIAKRANVSPEEYERLRKEAE

Variants of: B1
Assay: folding stability dG (cDNA display proteolysis); higher = more stable
Details: PBS, room temperature

Row | Variant | folding stability dG [kcal/mol]
1 | RDEDEKEKIKEALKRGNEDKAKEIAKRANVSPEEDERLRKEAE [Y35D] | 0.022
2 | RDEDEKEKIKEALKRGNEDKAKEIAKRANVSPEECERLRKEAE [Y35C] | 0.708
3 | RDEDEKEKIKEALKRGNEDKAKEIAKRANVSPEEEERLRKEAE [Y35E] | 0.245
4 | RDEDEKEKIKEALKRGNEDKAKEIAKRANVSPEEAERLRKEAE [Y35A] | 0.298
5 | RDEDEKEKIKEALKRGNEDKAKEIAKRAHVSPEEYERLRKEAE [N29H] | 2.67
6 | RDEDEKEKIKEALKRGNEDKAKEIAKRAQVSPEEYERLRKEAE [N29Q] | 2.62
7 | RDEDEKEKIKEALKRGNEDKAKEIAKRARVSPEEYERLRKEAE [N29R] | 2.55
8 | RDEDEKEKIKEALKRGNEDKAKEIAKRAIVSPEEYERLRKEAE [N29I] | 1.23
9 | RDEDEKEKIKEALKRGNEDKAKEIAKRAFVSPEEYERLRKEAE [N29F] | 2.29
10 | RDEDEKEKIKEALKRGNEDKAKEIAKRAWVSPEEYERLRKEAE [N29W] | 1.51
11 | RDEDEKEKIKEALKRGNEDKAKEIAKRATVSPEEYERLRKEAE [N29T] | 1.58
12 | RDEDEKEKIKEALKRGNEDKAKEIAKRAYVSPEEYERLRKEAE [N29Y] | 1.9
13 | RDEDEKEKIKEALKRGNEDKAKEIAKRACVSPEEYERLRKEAE [N29C] | 1.83
14 | RDEDEKEKIKEALKRGNEDKAKEIAKRASVSPEEYERLRKEAE [N29S] | 2.42
15 | RDEDEKEKIKEALKRGNEDKAKEIAKRAGVSPEEYERLRKEAE [N29G] | 3.3
16 | RDEDEKEKIKEALKRGNEDKAKEIAKRAVVSPEEYERLRKEAE [N29V] | 1.41
17 | RDEDEKEKIKEALKRGNEDKAKEIAKRALVSPEEYERLRKEAE [N29L] | 2.22
18 | RDEDEKEKIKEALKRGNEDKAKEIAKRAKVSPEEYERLRKEAE [N29K] | 2.74
19 | RDEDEKEKIKEALKRGNEDKAKEIAKRAPVSPEEYERLRKEAE [N29P] | 0.97
20 | RDEDEKEKIKEALKRGNEDKAKEIAKRAEVSPEEYERLRKEAE [N29E] | 2.29

Row | Variant | folding stability dG [kcal/mol]
21 | RDEDEKEKIKEALKRGNEDKAKEIAKRAMVSPEEYERLRKEAE [N29M] | 2.51
22 | RDEDEKEKIKEALKRGNEDKAKEIAKRAAVSPEEYERLRKEAE [N29A] | 2.34
23 | RDEDEKEKIKEALKRGNEDKAKEIAKRADVSPEEYERLRKEAE [N29D] | 2.39
24 | RDEDEKEKIKEALKRGNEDKAKEIAKRANVSPEVYERLRKEAE [E34V] | 1.81
25 | RDEDEKEKIKEALKRGNEDKAKEIAKRANVSPEGYERLRKEAE [E34G] | 1.06
26 | RDEDEKEKIKEALKRGNEDKAKEIAKRANVSPELYERLRKEAE [E34L] | 1.56
27 | RDEDEKEKIKEALKRGNEDKAKEIAKRANVSPEHYERLRKEAE [E34H] | 0.903
28 | RDEDEKEKIKEALKRGNEDKAKEIAKRANVSPEQYERLRKEAE [E34Q] | 1.68
29 | RDEDEKEKIKEALKRGNEDKAKEIAKRANVSPEAYERLRKEAE [E34A] | 1.69
30 | RDEDEKEKIKEALKRGNEDKAKEIAKRANVSPEMYERLRKEAE [E34M] | 1.72
31 | RDEDEKEKIKEALKRGNEDKAKEIAKRANVSPECYERLRKEAE [E34C] | 1.85
32 | RDEDEKEKIKEALKRGNEDKAKEIAKRANVSPENYERLRKEAE [E34N] | 0.916
33 | RDEDEKEKIKEALKRGNEDKAKEIAKRANVSPESYERLRKEAE [E34S] | 1.14
34 | RDEDEKEKIKEALKRGNEDKAKEIAKRANVSPERYERLRKEAE [E34R] | -0.261
35 | RDEDEKEKIKEALKRGNEDKAKEIAKRANVSPEIYERLRKEAE [E34I] | 1.79
36 | RDEDEKEKIKEALKRGNEDKAKEIAKRANVSPEYYERLRKEAE [E34Y] | 0.926
37 | RDEDEKEKIKEALKRGNEDKAKEIAKRANVSPEDYERLRKEAE [E34D] | 2.42
38 | RDEDEKEKIKEALKRGNEDKAKEIAKRANVSPEFYERLRKEAE [E34F] | 0.766
39 | RDEDEKEKIKEALKRGNEDKAKEIAKRANVSPEWYERLRKEAE [E34W] | 1.1
40 | RDEDEKEKIKEALKRGNEDKAKEIAKRANVSPETYERLRKEAE [E34T] | 1.51

Row | Variant | folding stability dG [kcal/mol]
41 | RDEDEKEKIKEALKRGNEDKAKEIAKRANVSPEKYERLRKEAE [E34K] | -0.215
42 | RDEDEKEKIKEALKRGNEDKAKEIAKRANVSPIEYERLRKEAE [E33I] | 2.19
43 | RDEDEKEKIKEALKRGNEDKAKEIAKRANVSPVEYERLRKEAE [E33V] | 2.22
44 | RDEDEKEKIKEALKRGNEDKAKEIAKRANVSPHEYERLRKEAE [E33H] | 2.03
45 | RDEDEKEKIKEALKRGNEDKAKEIAKRANVSPTEYERLRKEAE [E33T] | 2.33
46 | RDEDEKEKIKEALKRGNEDKAKEIAKRANVSPFEYERLRKEAE [E33F] | 1.96
47 | RDEDEKEKIKEALKRGNEDKAKEIAKRANVSPREYERLRKEAE [E33R] | 1.99
48 | RDEDEKEKIKEALKRGNEDKAKEIAKRANVSPWEYERLRKEAE [E33W] | 2.06
49 | RDEDEKEKIKEALKRGNEDKAKEIAKRANVSPSEYERLRKEAE [E33S] | 2.43
50 | RDEDEKEKIKEALKRGNEDKAKEIAKRANVSPKEYERLRKEAE [E33K] | 2.04
51 | RDEDEKEKIKEALKRGNEDKAKEIAKRANVSPPEYERLRKEAE [E33P] | 1.57
52 | RDEDEKEKIKEALKRGNEDKAKEIAKRANVSPYEYERLRKEAE [E33Y] | 1.92
53 | RDEDEKEKIKEALKRGNEDKAKEIAKRANVSPCEYERLRKEAE [E33C] | 2.29
54 | RDEDEKEKIKEALKRGNEDKAKEIAKRANVSPNEYERLRKEAE [E33N] | 2.07
55 | RDEDEKEKIKEALKRGNEDKAKEIAKRANVSPMEYERLRKEAE [E33M] | 2.33
56 | RDEDEKEKIKEALKRGNEDKAKEIAKRANVSPLEYERLRKEAE [E33L] | 2.27
57 | RDEDEKEKIKEALKRGNEDKAKEIAKRANVSPDEYERLRKEAE [E33D] | 2.64
58 | RDEDEKEKIKEALKRGNEDKAKEIAKRANVSPGEYERLRKEAE [E33G] | 2.25
59 | RDEDEKEKIKEALKRGNEDKAKEIAKRANVSPQEYERLRKEAE [E33Q] | 2.58
